Assay results as given in paper PMC3524126, “Live-Cell Visualization of Intracellular Interaction between a Nuclear Migration Protein (hNUDC) and the Thrombopoietin Receptor (Mpl)” (PLoS ONE, 2012).

T1: Flag-Mpl-VN (full-length thrombopoietin receptor Mpl fused to the N-terminal half of Venus) (UniProt P40238 26-635)
T1 construct: Inserted between Flag and VN in pBiFC-VN173; also called pFlag-Mpl-VN; source: Cos-1, transiently transfected, in living cells; not shown: Flag, N-terminal, kept; Venus N-terminal fragment 1-173 (VN), C-terminal, kept
T1 sequence (looked up): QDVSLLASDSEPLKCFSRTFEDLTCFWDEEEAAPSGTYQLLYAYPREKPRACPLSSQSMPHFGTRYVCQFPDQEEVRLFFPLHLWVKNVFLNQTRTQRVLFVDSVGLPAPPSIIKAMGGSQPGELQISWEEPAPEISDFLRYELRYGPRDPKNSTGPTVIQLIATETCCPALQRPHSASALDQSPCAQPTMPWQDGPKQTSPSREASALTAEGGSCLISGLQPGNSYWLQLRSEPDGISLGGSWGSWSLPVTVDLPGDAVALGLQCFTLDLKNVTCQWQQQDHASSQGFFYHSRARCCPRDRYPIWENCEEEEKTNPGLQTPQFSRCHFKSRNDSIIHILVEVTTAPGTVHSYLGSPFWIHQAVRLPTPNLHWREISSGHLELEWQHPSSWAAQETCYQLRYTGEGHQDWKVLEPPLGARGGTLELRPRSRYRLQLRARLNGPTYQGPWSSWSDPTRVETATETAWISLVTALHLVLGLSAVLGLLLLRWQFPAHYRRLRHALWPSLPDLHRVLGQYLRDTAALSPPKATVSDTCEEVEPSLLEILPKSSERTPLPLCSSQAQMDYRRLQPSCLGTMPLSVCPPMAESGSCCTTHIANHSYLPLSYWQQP

B1: HA-hNUDC-VC (full-length human NUDC fused to the C-terminal half of Venus) (natural protein)
chain: not shown
notes: Cloned between HA and VC in pBiFC-VC155; also called pHA-hNUDC-VC; phNUDC-VC; source: Cos-1, transiently transfected, in living cells; not shown: HA, N-terminal, kept; Venus C-terminal fragment 155-238 (VC), C-terminal, kept
B2: HA-hNUDC(1-159)-VC (N-terminal half of hNUDC fused to the C-terminal half of Venus) (domain or fragment)
chain: not shown
notes: human NUDC (hNUDC), N-terminal half, residues 1-159; Cloned between HA and VC in pBiFC-VC155; also called pHA-hNUDC(1-159)-VC; source: Cos-1, transiently transfected, in living cells; not shown: HA, N-terminal, kept; Venus C-terminal fragment 155-238 (VC), C-terminal, kept

Target: T1, Flag-Mpl-VN (full-length thrombopoietin …)
Assay: split reporter (BiFC, NanoBiT); Venus BiFC read by flow cytometry of Cos-1 cells, 12 h after transfection; 1x10^4 cells, Venus-positive cells against untransfected and empty-vector cells
Conditions: partners not purified

Binder | fold increase of the Venus signal over untransfected Cos-1 cells [fold]
B1 | 16.7
B2 | 16.2
